Data: the supplement of paper PMC9170038

System: K4 kissing-loop RNA reporter
Assay: apparent KD of K4 kissing-loop reporter; higher = weaker reporter binding
Conditions: Eterna round: R107
Procedure: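 RNA-MaP round R107: designed RNA switches with theophylline, tryptophan, arginine or FMN aptamers are transcribed on-chip within common flanks. They are titrated with a labelled K4 kissing-loop RNA reporter in RNA-MaP buffer (100 mM Tris pH 7.5, 80 mM KCl, 4 mM MgCl2), without ligand or with the indicated ligand. Median apparent KD per design.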

[1] = input ligand: theophylline 20 uM
[2] = input ligand: tryptophan 2.4 mM
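Note: bound reporter read as fluorescence of individual clusters on recovered sequencing chips by microscopy, with normalized cluster intensities fitted with a binding model.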

Sequence	apparent KD of K4 kissing-loop reporter (input ligand: FMN 200 uM) [nM]	apparent KD of K4 kissing-loop reporter (input ligand: arginine 13.2 mM) [nM]	apparent KD of K4 kissing-loop reporter (input ligand: none) [nM]	apparent KD of K4 kissing-loop reporter [1] [nM]	apparent KD of K4 kissing-loop reporter [2] [nM]
AAUAAAAUCACGGCCGCCACUGAUAUCCAUAUUAGGAGUGAUGUUCCUUUGACUAUAUAAUUUUACAGGACCGGGUGAAUAUUUA [JR_Nu_SSTryptoB_Sub027]	104	143	120	131	90.8
AAUAAAAUCACGGCCGCCACUGAUGUUAAUAUUAGCAGUGAUGUUGCUAUGUCGUUUUUAUUUAACAGGACCGGGUGAAUAUUUA [JR_ExcTryptoB_Sub013]	183	182	171	188	154
AAUAAGCGUGGAAGGAGCGUCGUCCAGUGAUGUUGGAGUUAGAUACCAGUGAUGUUGGUUAGGCAGGUAGGUCGCCGCAAAGCUU [Exclusion Arginine B Gf 7]	96.8	67.6	90.8	86.3	81
AAUACACUGUCGGCCGCCACUCUCGGCUGCAGUGUGCAGGGACAUGAGUGAUGUUUAUGUCGCGUGAGGACCGGGACUGAUGUAU [KL-SSTryp-B1 #analogue]	326	257	312	326	209
AAUACUAUCAGAAGGAGCGUGGAAUAUUCAUCUGUAUCUAAUACGAGUGAUGUUCGUAAUUCACAGGUAGGUCGCUGAUUAAUAA [whbob_Ex_Arginine_B_2th157]	274	275	253	266	231
AAUAGCCGUACUAGUGAUGUUAGUGUGGAUACCAGUUCAUGGACGAACCCUUGGCAGCCAUCAAAUAUAUAUGAGGGAUCAUCAC [theeternabot_exclusion_KL_Theo_A_47]	295	268	309	410	320
AAUAUACAGGGAAGGAGCGUCGUCCAGUGAUGUUGGAGUUAAAUACCAGUGAUGUUGGUUAGGCAGGUAGGUCGCCCUAAAGUAU [KL-XARG-B15]	93.6	68.3	86.7	85.1	73.9
AAUAUACAUUAAUUAAUUAAAGGUUCAGAAGGAGCGUGAAUUAACACAGGUAGGUCGCUGAGCGAGUGAUGUUCGCUAUAUACUA [JR_ExcArginiA_Sub004]	61.4	73.1	69.5	79.9	58.1
AAUAUAGUGAUGUUAUAUAAGAAGGAGUUACGAGGACCGGUACGGCCGCCACUCGAAACGAGUGAUGAUUUGGGAGAUUGGGUUG [SSTryptA.N]	484	347	489	433	370
AAUAUAUAGUGAAGGAGCGCGAUAAGCAGUGAUGUUGCUUAGCUAUUAUUCAUUAUUUUUACGCAGGUAGGUCGCACUAUAUAUA [JR_ExcArginiB_Sub014]	138	128	144	133	139
AAUAUAUAGUGAAGGAGCGCGUAUAGCAGUGAUGUUGCUUACUUAUUAUUAUAUUUUUUGACGCAGGUAGGUCGCACUAUAUAUA [JR_ExcArginiB_Sub021]	242	181	268	227	215
AAUAUAUUGUGAAGGAGCGCGAAAAGCAGUGAUGUUGCUUACUUACAAUUUAUUUUUUACACGCAGGUAGGUCGCACAAUAUAUA [JR_SSArginiB_Sub015]	234	223	269	280	220
AAUCCUUACGGAGUGAUGUUCCGUAGCGAUACCAGCCAUUGCGAUGGCCCUUGGCAGCGCUAUAAGCAUUGCUAUUAAGGGCCAA [Theo A Ex t7a]	134	107	124	121	126
AAUCUCCUAGUGAUGUUAGGUUUAAGGGAAGGAGCGAGGUAAUACUCAGGUAGGUCGCCCACAUGCAUUAAUAAAUCAAUUUAAU	102	73.8	91	98.8	84.2
AAUGCAUAGUGAAGGAGCGCGAUAAGCAGUGAUGUUGCUUAGCUAUUAUUCAUUAUUUUAACGCAGGUAGGUCGCACUUUGCAUA [JR_ExcArginiB_Sub015]	131	127	128	151	128
AAUGCAUAGUGAAGGAGCGCGAUAAGCAGUGAUGUUGCUUAGUUAUAAGUGUUUAUUUAUUCGCAGGUAGGUCGCACUUUGCAUA [JR_ExcArginiB_Sub019]	147	111	124	117	132
AAUGCAUAGUGAAGGAGCGCGAUAAGCAGUGAUGUUGCUUAGUUAUUAGUGUUUAUUUAUACGCAGGUAGGUCGCACUUUGCAUA [JR_ExcArginiB_Sub018]	115	103	109	105	107
AAUGCAUUGUGAAGGAGCGCGAUAGGCAGUGAUGUUGCUUACAUUUUAUUAUGUUUUAAAACGCAGGUAGGUCGCACUUUGCAUA [JR_Nu_SSArginiB_Sub030]	187	163	183	193	162
AAUGUACAGGGAAGGAGCGUCGUCCAGUGAUGUUGGAGUUAAAUACCAGUGAUGUUGGUUAGGCAGGUAGGUCGCCCUAAAGUAU [#08 K4 Arginine B Exclusion]	96.1	71.5	86.9	80	75.2
AAUGUGCAGGGAAGGAGCGUAGUCCAGUGCUGUUGGAGUUAGAUACCAGUGAUGUUGGUUAUACAGGUAGGUCGCCCUAGAGCGC [whbob_Ex_Arginine_B_2th162]	114	119	124	141	96.3
AAUGUUAGCAAAGGAUAUCUGAUGAGUGAUGUUUACGGACCGUUUGCGUUUCAUUACACGCAGCUCAGAGAAGGUUGGUGUGCAG [theeternabot_exclusion_KL_FMN_B_49]	1230	866	1180	890	961
AAUUAAUGUAUAGAUUAUAUACAUUAAUCAGAGGAUAUGCAUUAUUGCAGAAGGCUGAAUGCAGUGAUGUUGCAAUAAUAAUUUA [JR_SSFMNA_Sub003]	60.6	229	186	313	151

Sequence	apparent KD of K4 kissing-loop reporter (input ligand: FMN 200 uM) [nM]	apparent KD of K4 kissing-loop reporter (input ligand: arginine 13.2 mM) [nM]	apparent KD of K4 kissing-loop reporter (input ligand: none) [nM]	apparent KD of K4 kissing-loop reporter [1] [nM]	apparent KD of K4 kissing-loop reporter [2] [nM]
AAUUAGCCGUAAGAAUAGUGAUGUUAUUCACGAGGACCGGUACGGCCGCCACUCGAUAUUGGAAUAUUGAAUUUUUUAUUCUAAA [JR_SSTryptoA_Sub009]	524	474	552	577	291
AAUUGGCAGUGAUGUUGUCAAGGACAUACGAAGGAUAUAAGUGAAGUUAGAAGGUCGACCAUCACUUCUUUGCCAUUUGCAUGAC [theeternabot_exclusion_KL_FMN_A_20]	238	214	207	243	193
AAUUUUAAUAAUAAAUAAUAAAUAAAUGAUACCAGUAUUUUUUUUUACCCUUGGCAGCAUAUAUAAGGGCAGUGAUGUUGCCAAA [Same State - Theophylline A]	145	85.2	119	111	131
AAUUUUAAUAAUAAAUAAUAAAUAAAUGAUACCAGUAUUUUUUUUUACCCUUGGCAGCGUAUAUAAGGGCAGUGAUGUUGUCAGA [whbob_SS_Theo_A_w59]	223	144	212	232	164
ACAAGGGAUCCAGAUACCAGCACUCAAGGAGCUAUAUCAGCGAGUGAUGUUCGUUCAUAGUGCCCUUGGCAGCUGUACUUCCUUG [Essoengeis]	115	107	123	114	110
ACACGGGUCUCGGCCGCCACUCUGCCUACCACCAUUAGUGCCAGUGAUGUUGGCAGGUGAGGGCUGAGGACCGGGAGAUCCAUAC [Zaremais]	140	124	136	122	107
ACACGUGUGGCAGGAUAUCGGGCUGUGGAUCGGCUGGUUACUUAUUCUCGACCAGUGAUGUUGGUACGAGAAGGGCUACCCAGAA [Cetebera]	145	124	139	135	116
ACACUAUCGUCAUAGACGGUAGUGACAUCUCAGGAUAUAAGUGAUGUUAGAAGGGAGAAAAUCUUAGGUAUCGAAUAGAUACCAA [FmnA 8 #K4BetweenAptamer #OpenEnded]	415	1100	1270	821	1380
ACACUUUACGUAGGAUAUGCGACGAGUGAUGUUCGUCAGGCGGCUUUAGAUUAAACAAGCCGCCUAGCAGAAGGACGGGCAGUGU [Zaorleon]	126	147	188	178	144
ACACUUUACGUAGGAUAUGCGACGAGUGAUGUUCGUCAGGCGGCUUUAGCUUAAGCAAGCCGCCUAGCAGAAGGACGGGCAGUGU [Bigemalaza]	139	163	179	185	173
ACAGAGGUAACCUGCAGUGAUGUUGCGGAUACCAGCUCACGAAACAGCCCUUGGCAGCCGCCGUCACUAACACGGUGGAUACAGU [theeternabot_exclusion_KL_Theo_A_49]	257	168	230	178	181
ACAGAGUGAUGUUUUGUAAAGAUCUUUGAUACCAGCGCCAGAAAUCGCCCUUGGCAGCAAGCCGUACAUACGUUGAUUGAUCCAC [theeternabot_exclusion_KL_Theo_A_14]	738	694	926	758	577
ACAGAUGCUAGUGAUACCAGACUAGCACUACGUAAUAUGUCAAGUGAUGUUUGACAACUAGUCCCUUGGCAGCGCGAUACGUCUG [Theo B SS t2]	297	353	295	305	261
ACAGUAGUGAUGUCUUUGAUAUUACUACUGCGAGGACCGGUACGGCCGCCACUCGCCCAUUUUUGGGUUGAGAGUGAUGUUCUCA [Skye_SS_TA2]	594	345	474	482	588
ACAGUCCCGCAUGGUGCGAACGAGAGAUGGCGAGGACCGGUACGGCCGCCACUCGAACAAGUGAUGUUUGAUAUCAUUUUUCUAC [theeternabot_sameState_KL_Trp_A_10]	98.6	83.3	117	90.7	85.4
ACAGUCGGCUGUGAUACCAGUCGUAUAACAACAUGUUGCAGUGAUGUUGCGAGAUAGGAUGACCCUUGGCAGCACUCAGUACGAC [Same State Theophylline B GF11]	324	101	248	328	150
ACAUCGGUUGAGAGUGAUGUUCCUUGUGUUCGAGGACCGGUACGGCCGCCACUCGGGUAGAAAAUAACAGAUGUGUUUGAUUUUU [BDazzled - #16 SS Tryptophan A]	163	88.4	144	308	244
ACAUGCCCAGUGAUGUUGGAUAAAUAUGAAGGAGCGUGCGAAAGCACAGGUAGGUCGCAUAAUAGCAUGAGUCACGAAAGUGACA [#18 K4 Arginine A Same State]	327	291	356	278	209
ACAUGUGCCAGUGAUGUUGGCGUACGUGAUACCAGACGAAUAAAAGUCCCUUGGCAGCACAAAUAAGCCAAGAUAGAUGAAUGAU [#03 K4 Theophylline A Exclusion]	191	159	203	242	189
ACAUUUUCAAGUGAUACCAGACAUUUUUUUUUCUUUAUUUAUGCUAAGUGAUGUUUAGCAGUCCCUUGGCAGCACUAUUUAACUA [JR_Nu_SSTheophyB_Sub031]	121	101	93.2	169	115
ACCAUCAAAGAUGGCCAGGACUCCGCUGAUACCAGAGUGAAAACACUCCCUUGGCAGCAGGUGAGUGAUGUUCACAAGUCCUGGA [Omel KL Theo A SS B v5]	1160	693	1860	981	857
